From IntAct's records for PubMed 17891150

Target: TNRC6B, Q9UPQ9-2
Sequence (Q9UPQ9 other isoform, or with tags, fused parts or gaps): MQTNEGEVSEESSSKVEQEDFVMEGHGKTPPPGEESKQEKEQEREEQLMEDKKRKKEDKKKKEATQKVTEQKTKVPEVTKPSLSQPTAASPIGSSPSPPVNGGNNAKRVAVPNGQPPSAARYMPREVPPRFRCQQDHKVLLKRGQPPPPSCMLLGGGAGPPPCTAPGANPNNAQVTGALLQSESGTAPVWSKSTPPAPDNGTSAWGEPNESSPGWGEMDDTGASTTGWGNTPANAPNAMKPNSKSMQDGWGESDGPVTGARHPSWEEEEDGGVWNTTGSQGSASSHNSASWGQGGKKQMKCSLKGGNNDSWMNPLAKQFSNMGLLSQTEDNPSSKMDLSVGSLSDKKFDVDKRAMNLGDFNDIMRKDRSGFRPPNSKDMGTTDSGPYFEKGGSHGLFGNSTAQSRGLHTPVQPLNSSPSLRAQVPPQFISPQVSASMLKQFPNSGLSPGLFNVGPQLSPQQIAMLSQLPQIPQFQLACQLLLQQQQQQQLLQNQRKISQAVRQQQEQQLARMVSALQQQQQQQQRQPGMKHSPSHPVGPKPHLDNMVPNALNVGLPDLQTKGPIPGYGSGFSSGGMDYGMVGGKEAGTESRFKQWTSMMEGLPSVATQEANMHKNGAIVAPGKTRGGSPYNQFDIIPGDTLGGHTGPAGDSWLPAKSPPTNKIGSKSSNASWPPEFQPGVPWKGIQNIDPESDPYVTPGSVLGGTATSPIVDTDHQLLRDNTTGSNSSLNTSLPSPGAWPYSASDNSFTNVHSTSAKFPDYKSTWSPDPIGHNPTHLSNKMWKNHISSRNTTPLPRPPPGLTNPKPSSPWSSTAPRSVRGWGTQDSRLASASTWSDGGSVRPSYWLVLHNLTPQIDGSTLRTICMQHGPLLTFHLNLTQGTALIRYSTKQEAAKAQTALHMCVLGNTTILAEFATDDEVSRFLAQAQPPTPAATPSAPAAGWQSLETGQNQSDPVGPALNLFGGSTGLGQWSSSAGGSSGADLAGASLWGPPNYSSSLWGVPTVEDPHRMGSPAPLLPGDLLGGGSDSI

Sequence of Protein argonaute-2 (Homo sapiens), Q9UKV8 F653A (Q9UKV8 whole entry F653A): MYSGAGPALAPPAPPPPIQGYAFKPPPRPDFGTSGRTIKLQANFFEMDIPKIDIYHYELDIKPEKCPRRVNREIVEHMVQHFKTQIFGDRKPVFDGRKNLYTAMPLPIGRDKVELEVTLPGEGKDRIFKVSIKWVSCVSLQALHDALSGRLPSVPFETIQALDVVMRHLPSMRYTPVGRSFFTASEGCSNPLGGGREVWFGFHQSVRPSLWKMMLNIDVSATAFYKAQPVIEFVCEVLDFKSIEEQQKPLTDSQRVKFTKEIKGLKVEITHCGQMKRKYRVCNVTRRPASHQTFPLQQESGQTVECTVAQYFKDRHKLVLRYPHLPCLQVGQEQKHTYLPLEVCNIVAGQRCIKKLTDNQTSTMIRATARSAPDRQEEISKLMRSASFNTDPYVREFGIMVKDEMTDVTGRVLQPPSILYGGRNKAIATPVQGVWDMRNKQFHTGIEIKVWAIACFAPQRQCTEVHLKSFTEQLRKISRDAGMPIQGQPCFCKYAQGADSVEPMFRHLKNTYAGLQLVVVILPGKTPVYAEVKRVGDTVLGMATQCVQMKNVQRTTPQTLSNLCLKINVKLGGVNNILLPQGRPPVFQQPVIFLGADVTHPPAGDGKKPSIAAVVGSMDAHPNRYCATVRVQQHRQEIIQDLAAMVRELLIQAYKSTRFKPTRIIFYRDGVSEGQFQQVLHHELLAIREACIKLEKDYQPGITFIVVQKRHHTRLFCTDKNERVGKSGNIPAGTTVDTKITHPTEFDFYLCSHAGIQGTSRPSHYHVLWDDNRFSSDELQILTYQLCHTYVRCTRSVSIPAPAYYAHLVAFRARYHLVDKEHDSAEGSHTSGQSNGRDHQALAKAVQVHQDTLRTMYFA
Sequence of Protein argonaute-2 (Homo sapiens), Q9UKV8 V797A (Q9UKV8 whole entry V797A): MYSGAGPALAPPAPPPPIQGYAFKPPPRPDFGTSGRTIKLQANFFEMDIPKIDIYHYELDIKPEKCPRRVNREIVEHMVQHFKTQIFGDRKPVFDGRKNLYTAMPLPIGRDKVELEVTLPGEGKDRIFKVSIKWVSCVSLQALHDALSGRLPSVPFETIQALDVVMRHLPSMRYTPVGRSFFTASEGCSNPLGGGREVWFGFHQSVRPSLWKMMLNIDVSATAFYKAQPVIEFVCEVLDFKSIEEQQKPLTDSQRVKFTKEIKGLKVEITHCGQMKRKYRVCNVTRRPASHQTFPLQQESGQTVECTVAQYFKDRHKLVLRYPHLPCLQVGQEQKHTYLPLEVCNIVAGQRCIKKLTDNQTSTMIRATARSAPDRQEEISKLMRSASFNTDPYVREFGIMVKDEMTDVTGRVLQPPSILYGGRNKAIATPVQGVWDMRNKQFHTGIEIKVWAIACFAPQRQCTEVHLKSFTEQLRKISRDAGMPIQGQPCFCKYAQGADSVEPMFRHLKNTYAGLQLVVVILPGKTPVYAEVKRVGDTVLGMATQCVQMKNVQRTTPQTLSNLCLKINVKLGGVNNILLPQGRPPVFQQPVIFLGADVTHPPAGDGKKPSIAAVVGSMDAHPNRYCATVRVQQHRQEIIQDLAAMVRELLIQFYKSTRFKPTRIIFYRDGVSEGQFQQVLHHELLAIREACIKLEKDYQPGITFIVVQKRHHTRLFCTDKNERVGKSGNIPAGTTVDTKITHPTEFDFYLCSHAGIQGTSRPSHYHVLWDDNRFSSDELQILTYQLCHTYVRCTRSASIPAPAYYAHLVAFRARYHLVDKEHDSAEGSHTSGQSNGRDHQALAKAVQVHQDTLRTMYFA
Sequence of Protein argonaute-2 (Homo sapiens), Q9UKV8 F858A (Q9UKV8 whole entry F858A): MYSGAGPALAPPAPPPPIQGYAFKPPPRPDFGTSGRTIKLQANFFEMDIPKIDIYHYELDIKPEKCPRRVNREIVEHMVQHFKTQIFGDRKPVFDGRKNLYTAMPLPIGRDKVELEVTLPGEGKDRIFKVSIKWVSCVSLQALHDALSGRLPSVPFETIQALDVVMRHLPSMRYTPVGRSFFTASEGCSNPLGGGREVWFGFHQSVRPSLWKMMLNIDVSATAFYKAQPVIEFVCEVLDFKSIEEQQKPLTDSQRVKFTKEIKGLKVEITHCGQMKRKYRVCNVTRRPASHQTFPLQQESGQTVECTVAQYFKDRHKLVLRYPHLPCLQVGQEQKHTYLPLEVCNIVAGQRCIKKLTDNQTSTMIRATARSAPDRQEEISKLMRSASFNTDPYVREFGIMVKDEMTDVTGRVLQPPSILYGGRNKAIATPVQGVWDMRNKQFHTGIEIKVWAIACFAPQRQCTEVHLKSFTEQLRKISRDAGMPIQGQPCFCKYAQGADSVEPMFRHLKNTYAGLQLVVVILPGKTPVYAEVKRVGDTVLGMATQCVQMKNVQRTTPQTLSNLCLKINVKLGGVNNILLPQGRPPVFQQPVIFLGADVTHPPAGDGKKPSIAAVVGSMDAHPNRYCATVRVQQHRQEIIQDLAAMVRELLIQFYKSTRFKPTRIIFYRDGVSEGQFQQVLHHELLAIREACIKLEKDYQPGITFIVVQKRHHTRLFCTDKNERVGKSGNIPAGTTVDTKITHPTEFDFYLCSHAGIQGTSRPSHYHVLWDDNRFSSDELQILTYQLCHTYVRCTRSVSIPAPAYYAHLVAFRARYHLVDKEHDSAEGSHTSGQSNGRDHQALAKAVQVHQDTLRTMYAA
Sequence of Protein argonaute-2 (Homo sapiens), Q9UKV8 Q545A (Q9UKV8 whole entry Q545A): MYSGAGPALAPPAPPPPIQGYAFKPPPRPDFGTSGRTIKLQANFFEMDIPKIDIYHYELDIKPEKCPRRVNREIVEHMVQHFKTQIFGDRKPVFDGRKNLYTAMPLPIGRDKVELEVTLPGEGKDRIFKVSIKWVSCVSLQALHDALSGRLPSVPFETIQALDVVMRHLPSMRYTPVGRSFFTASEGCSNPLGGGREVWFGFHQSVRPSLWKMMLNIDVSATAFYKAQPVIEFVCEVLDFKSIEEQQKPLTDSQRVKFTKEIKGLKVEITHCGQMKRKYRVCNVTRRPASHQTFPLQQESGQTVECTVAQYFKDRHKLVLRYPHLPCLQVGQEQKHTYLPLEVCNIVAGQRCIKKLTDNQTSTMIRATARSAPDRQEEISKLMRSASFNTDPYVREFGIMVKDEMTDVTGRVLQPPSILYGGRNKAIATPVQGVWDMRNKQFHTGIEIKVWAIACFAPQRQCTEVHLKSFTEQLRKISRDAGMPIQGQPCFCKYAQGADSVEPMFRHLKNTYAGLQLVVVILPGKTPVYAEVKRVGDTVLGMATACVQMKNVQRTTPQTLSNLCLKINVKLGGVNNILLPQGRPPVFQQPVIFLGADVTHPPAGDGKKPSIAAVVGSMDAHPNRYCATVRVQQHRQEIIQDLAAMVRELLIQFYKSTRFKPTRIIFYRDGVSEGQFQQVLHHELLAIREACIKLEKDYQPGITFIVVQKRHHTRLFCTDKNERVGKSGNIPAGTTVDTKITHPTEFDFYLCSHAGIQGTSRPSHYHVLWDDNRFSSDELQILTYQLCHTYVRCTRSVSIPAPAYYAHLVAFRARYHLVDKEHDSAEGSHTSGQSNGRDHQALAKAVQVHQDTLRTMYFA

Substance | effect of a mutation on the interaction
Protein argonaute-2 (Homo sapiens), Q9UKV8 Y529A | disrupting interaction
Protein argonaute-2 (Homo sapiens), Q9UKV8 V797A | disrupting interaction
Protein argonaute-2 (Homo sapiens), Q9UKV8 R647A | disrupting interaction
Protein argonaute-2 (Homo sapiens), Q9UKV8 Y805A | decreasing interaction
Protein argonaute-2 (Homo sapiens), Q9UKV8 F653A | disrupting interaction
Protein argonaute-2 (Homo sapiens), Q9UKV8 Y749A | decreasing interaction
Protein argonaute-2 (Homo sapiens), Q9UKV8 I592A | disrupting interaction
Protein argonaute-2 (Homo sapiens), Q9UKV8 V615A | decreasing interaction
Protein argonaute-2 (Homo sapiens), Q9UKV8 R583A | disrupting interaction
Protein argonaute-2 (Homo sapiens), Q9UKV8 K533A | disrupting interaction
Protein argonaute-2 (Homo sapiens), Q9UKV8 F587A | decreasing interaction

Results, then the substance that gave them:

effect of a mutation on the interaction | Substance
decreasing interaction | Protein argonaute-2 (Homo sapiens), Q9UKV8 F858A
disrupting interaction | Protein argonaute-2 (Homo sapiens), Q9UKV8 Y625A
disrupting interaction | Protein argonaute-2 (Homo sapiens), Q9UKV8 R812A
disrupting interaction strength | Protein argonaute-2 (Homo sapiens), Q9UKV8 Q545A
decreasing interaction | Protein argonaute-2 (Homo sapiens), Q9UKV8 Y784A
